According to US20240132578A1:

Tests used:
Assay in all cases: cell-based or functional assay
[1] = target: HIV-1 Env of isolate MGRM-D-026 (clade D pseudovirus) (HIV-1)
[2] = target: HIV-1 Env of isolate 92UG031 (clade A pseudovirus) (HIV-1)
[3] = target: HIV-1 93IN905 envelope (Env) on pseudovirus (HIV-1)
[4] = target: HIV-1 MGRM-AE-001 Env (pseudovirus) (HIV-1)
[5] = target: HIV-1 envelope glycoprotein (Env) of isolate MGRM-C-009 (HIV-1)
[6] = target: HIV-1 Env of pseudovirus MGRM-G-024 (HIV-1)
[7] = target: HIV-1 Env of isolate PVO.4 (Acute), clade B (HIV-1)
[8] = target: HIV-1 Env of isolate JRCSF (Clade B) (HIV-1) (UniProt P20871)
[9] = target: HIV-1 envelope glycoprotein (Env) of isolate MGRM-C-001 (HIV-1)
[10] = target: HIV-1 Env of isolate QH0692.42 (Acute), clade B (HIV-1)
[11] = target: HIV-1 Env of isolate MGRM-D-014 (clade D pseudovirus) (HIV-1)
[12] = target: HIV-1 MGRM-AG-002 Env (pseudovirus) (HIV-1)
[13] = target: HIV-1 IAVI-C18 envelope (Env) on pseudovirus (HIV-1)
[14] = target: HIV-1 Env of pseudovirus MGRM-G-019 (HIV-1)
[15] = target: HIV-1 Env of isolate 92RW009 (clade A pseudovirus) (HIV-1)
[16] = target: HIV-1 Env of isolate MGRM-F1-022 (pseudovirus) (HIV-1)
[17] = target: HIV-1 Env of isolate MGRM-AG-013 (pseudovirus) (HIV-1)
[18] = target: HIV-1 92TH021 Env (HIV-1)
aMLV envelope = target: aMLV envelope
HIV-1 JRCSF Env (HIV-1) = HIV-1 JRCSF Env (HIV-1) (UniProt P20871)
[19] = target: HIV-1 Env of isolate MGRM-AG-003 (pseudovirus) (HIV-1)
[20] = target: HIV-1 JR-CSF Env W395A (HIV-1 (isolate JR-CSF)) (UniProt P20871)
[21] = target: HIV-1 Env of isolate MGRM-AG-011 (pseudovirus) (HIV-1)
[22] = target: HIV-1 JR-CSF Env S334A (HIV-1 isolate JR-CSF) (UniProt P20871)
[23] = target: HIV-1 Env of isolate MGRM-AG-009 (pseudovirus) (HIV-1)
[24] = target: HIV-1 JR-CSF Env L416A (HIV-1 (isolate JR-CSF)) (UniProt P20871)
[25] = target: HIV-1 envelope glycoprotein (Env) of isolate 93TH305, on pseudovirus (HIV-1)
[26] = target: HIV-1 Env of isolate MGRM-AE-003 (subtype AE) (HIV-1)
[27] = target: HIV-1 Env of isolate MGRM-AE-005 (subtype AE) (HIV-1)
[28] = target: HIV-1 Env of isolate 92UG046 (pseudovirus) (HIV-1)
[29] = target: HIV-1 Env of isolate 92WR009 (pseudovirus) (HIV-1)
[30] = target: HIV-1 Env of isolate MGRM-D-011 (pseudovirus) (HIV-1)

Sequence of 1443_C16 (PG16) (TCN-116) (antibody) (VH): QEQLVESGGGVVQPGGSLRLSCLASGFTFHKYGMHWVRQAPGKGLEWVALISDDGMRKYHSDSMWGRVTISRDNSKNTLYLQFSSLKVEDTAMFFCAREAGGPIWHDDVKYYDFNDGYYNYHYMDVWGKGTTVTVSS
Sequence of 1443_C16 (PG16) (TCN-116) (antibody) (VL): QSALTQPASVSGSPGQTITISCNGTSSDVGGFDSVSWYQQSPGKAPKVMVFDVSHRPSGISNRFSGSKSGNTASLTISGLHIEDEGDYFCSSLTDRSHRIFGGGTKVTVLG

| Substance | IC50, pseudovirus neutralization [1] [µg/mL] | IC50 (µg/ml), pseudovirus neutralization [2] [µg/mL] | neutralization IC50 [3] [µg/mL] | IC50 (µg/ml), pseudovirus neutralization [4] [µg/mL] | IC50 (µg/ml), pseudovirus neutralization [5] [µg/mL] | IC50 (µg/ml), pseudovirus neutralization [6] [µg/mL] | IC50 (µg/ml), pseudovirus neutralization [7] [µg/mL] | IC90 (neutralization of pseudovirus) [8] [µg/mL] | IC50 (µg/ml), pseudovirus neutralization [9] [µg/mL] | IC50 (µg/ml), pseudovirus neutralization [10] [µg/mL] | IC50, pseudovirus neutralization [11] [µg/mL] | IC50 (µg/ml), pseudovirus neutralization [12] [µg/mL] | neutralization IC50 [13] [µg/mL] | IC50 (µg/ml), pseudovirus neutralization [14] [µg/mL] | IC50 (µg/ml), pseudovirus neutralization [15] [µg/mL] | IC50 (µg/mL), pseudovirus neutralization [16] [µg/mL] | IC50 (µg/mL), pseudovirus neutralization [17] [µg/mL] | Fold IC50 increase relative to wild-type (pseudovirus neutralization) [20] [fold] | Fold IC50 increase relative to wild-type [22] [fold] | Fold IC50 increase relative to wild-type (pseudovirus neutralization) [24] [fold] | further results |
| --- | --- | --- | --- | --- | --- | --- | --- | --- | --- | --- | --- | --- | --- | --- | --- | --- | --- | --- | --- | --- | --- |
| 2F5 (antibody) | 4.37 | 3.81 | > 50 | 0.29 | > 50 | 1.07 | > 50 | 25.3 | > 50 | 5.42 | 2.22 | 0.54 | > 50 | > 50 | 39.1 | – | – | – | – | – | – |
| 2G12 (antibody) | > 50 | > 50 | > 50 | > 50 | > 50 | > 50 | 0.8 | 5.38 | 2.93 | 4.39 | > 50 | 0.54 | > 50 | 31 | 26.1 | – | – | – | – | – | – |
| 4E10 (antibody) | 2.95 | 4.94 | 1.55 | 0.85 | 0.56 | 1.57 | 18.3 | 44.1 | 5.66 | 12.7 | 3.24 | 0.8 | > 50 | 6.53 | > 50 | – | – | – | – | – | – |
| 1443_C16 (PG16) (TCN-116) (antibody) | > 50 | 0.43 | 0.102 | 4.33 | > 50 | 0.01 | 5.43 | 0.013 | 16.8 | > 50 | 0.003 | 0.03 | 0.0067 | 1.21 | 0.11 | – | – | – | – | – | – |
| 1495_C14 (PGC14) (antibody) | > 50 | > 50 | > 50 | > 50 | > 50 | > 50 | > 50 | – | > 50 | > 50 | 48 | > 50 | > 50 | > 50 | > 50 | – | – | – | – | – | – |
| 4858_P08 (PGT-123) (antibody) | – | – | – | – | – | – | – | – | – | – | – | – | – | – | – | 0.075 | 3.37 | 0.4 | > 50 | 0.9 | IC50, pseudovirus neutralization [18]: > 10 µg/mL; IC50, pseudovirus neutralization (aMLV envelope): > 10 µg/mL; IC50, pseudovirus neutralization (HIV-1 JRCSF Env (HIV-1)): 0.0423 µg/mL; IC50 (µg/mL), pseudovirus neutralization [19]: > 50 µg/mL; IC50 (µg/mL), pseudovirus neutralization [21]: > 50 µg/mL; IC50 (µg/mL), pseudovirus neutralization [23]: 0.073 µg/mL; IC50, pseudovirus neutralization [25]: 0.008 µg/mL |
| 5123_A06 (PGT-125) (antibody) | – | – | – | – | – | – | – | – | – | – | – | – | – | – | – | > 50 | 0.004 | 0.9 | 0.8 | 0.8 | IC50, pseudovirus neutralization [18]: 0.0066 µg/mL; IC50, pseudovirus neutralization (aMLV envelope): > 10 µg/mL; IC50, pseudovirus neutralization (HIV-1 JRCSF Env (HIV-1)): 0.006 µg/mL; IC50 (µg/mL), pseudovirus neutralization [19]: > 50 µg/mL; IC50 (µg/mL), pseudovirus neutralization [21]: > 50 µg/mL; IC50 (µg/mL), pseudovirus neutralization [23]: 0.026 µg/mL; IC50, pseudovirus neutralization [25]: 0.008 µg/mL |
| 5141_B17 (PGT-126) (antibody) | – | – | – | – | – | – | – | – | – | – | – | – | – | – | – | > 50 | 0.008 | 0.6 | > 30 | 0.8 | IC50, pseudovirus neutralization [18]: 0.115 µg/mL; IC50, pseudovirus neutralization (aMLV envelope): > 10 µg/mL; IC50, pseudovirus neutralization (HIV-1 JRCSF Env (HIV-1)): 0.0061 µg/mL; IC50 (µg/mL), pseudovirus neutralization [19]: > 50 µg/mL; IC50 (µg/mL), pseudovirus neutralization [21]: 24.5 µg/mL; IC50 (µg/mL), pseudovirus neutralization [23]: 0.03 µg/mL; IC50, pseudovirus neutralization [25]: 0.013 µg/mL |
| 5145_B14 (PGT-127) (antibody) | – | – | – | – | – | – | – | – | – | – | – | – | – | – | – | > 50 | 0.018 | 1.6 | > 500 | 1 | IC50 (µg/mL), pseudovirus neutralization [19]: > 50 µg/mL; IC50 (µg/mL), pseudovirus neutralization [21]: > 50 µg/mL; IC50 (µg/mL), pseudovirus neutralization [23]: 0.059 µg/mL; IC50, pseudovirus neutralization [25]: 0.017 µg/mL |
| 5147_N06 (PGT-130) (antibody) | – | – | – | – | – | – | – | – | – | – | – | – | – | – | – | – | – | 0.6 | 0.5 | 1 | IC50, pseudovirus neutralization [26]: 0.337 µg/mL; IC50, pseudovirus neutralization [18]: 0.0082 µg/mL; IC50, pseudovirus neutralization (aMLV envelope): > 10 µg/mL; IC50, pseudovirus neutralization (HIV-1 JRCSF Env (HIV-1)): 0.0089 µg/mL; IC50, pseudovirus neutralization [27]: 0.006 µg/mL; IC50 (µg/mL), pseudovirus neutralization [28]: > 50 µg/mL; IC50 (µg/mL), pseudovirus neutralization [29]: 1.27 µg/mL; IC50 (µg/mL), pseudovirus neutralization [30]: 0.019 µg/mL |
| 5343_B08 (PGT-135) (antibody) | – | – | – | – | – | – | – | – | – | – | – | – | – | – | – | – | – | 0.6 | > 30 | 1.2 | IC50, pseudovirus neutralization [26]: > 50 µg/mL; IC50, pseudovirus neutralization [27]: > 50 µg/mL; IC50 (µg/mL), pseudovirus neutralization [28]: > 50 µg/mL; IC50 (µg/mL), pseudovirus neutralization [29]: > 50 µg/mL; IC50 (µg/mL), pseudovirus neutralization [30]: 23.5 µg/mL |
| b12 (antibody) | 1.55 | > 50 | 34.1 | 25.9 | > 50 | 2.38 | > 50 | 1.17 | > 50 | 0.73 | > 50 | 0.89 | > 50 | 3.77 | > 50 | – | – | – | – | – | – |
